# T1: Diap1 in Cos-7 cells (Drosophila melanogaster, UniProt Q24306)
# T1 construct: expressed in transfected cells; host or cells: Cos-7
# T1 sequence (Q24306 1-438): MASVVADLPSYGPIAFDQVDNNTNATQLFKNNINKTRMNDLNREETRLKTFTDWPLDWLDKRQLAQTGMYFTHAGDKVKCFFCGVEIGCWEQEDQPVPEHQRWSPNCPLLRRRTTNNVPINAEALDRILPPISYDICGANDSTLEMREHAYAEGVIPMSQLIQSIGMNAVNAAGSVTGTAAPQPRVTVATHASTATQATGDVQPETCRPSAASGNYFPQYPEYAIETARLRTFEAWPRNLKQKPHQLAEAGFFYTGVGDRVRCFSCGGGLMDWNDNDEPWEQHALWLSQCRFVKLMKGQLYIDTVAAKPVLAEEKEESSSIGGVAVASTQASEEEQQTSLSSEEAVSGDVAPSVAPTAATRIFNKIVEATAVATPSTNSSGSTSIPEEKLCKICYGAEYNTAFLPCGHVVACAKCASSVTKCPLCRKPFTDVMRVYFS
# B1: Reaper: Drosophila IAP inhibitor (IAPi) protein REAPER, wild type; used as protein or expressed from a transgene/plasmid (protein)
# chain: MAVAFYIPDQATLLREAEQKEQQILRLRESQWRFLATVVLETLRQYTSCHPKTGRKSGKYRKPSQ
# Tests used:
# [1] = molecular target: DIAP1 (Drosophila IAP1), wild type, 35S-methionine labeled, in vitro translated from diap1-pET14b (UniProt Q24306)
# [2] = molecular target: His-DIAP1 21-4S mutant (RING domain mutant, Cys 406 to Tyr), 35S-methionine labeled, in vitro translated from diap1 21-4S pET14b (UniProt Q24306)
# [3] = molecular target: T2, XIAP (Homo sapiens, UniProt P98170); experiment: In vitro XIAP self-conjugation assay; type: biochemical
# T2 construct: Full length xiap was amplified by PCR and subcloned into the EcoRI, ApaI site of this pcDNA3; made in house; host or cells: in vitro transcription-translation system (Promega); UBCH5C from E. coli BL21 (pLysS)
# T2 sequence (P98170 whole entry): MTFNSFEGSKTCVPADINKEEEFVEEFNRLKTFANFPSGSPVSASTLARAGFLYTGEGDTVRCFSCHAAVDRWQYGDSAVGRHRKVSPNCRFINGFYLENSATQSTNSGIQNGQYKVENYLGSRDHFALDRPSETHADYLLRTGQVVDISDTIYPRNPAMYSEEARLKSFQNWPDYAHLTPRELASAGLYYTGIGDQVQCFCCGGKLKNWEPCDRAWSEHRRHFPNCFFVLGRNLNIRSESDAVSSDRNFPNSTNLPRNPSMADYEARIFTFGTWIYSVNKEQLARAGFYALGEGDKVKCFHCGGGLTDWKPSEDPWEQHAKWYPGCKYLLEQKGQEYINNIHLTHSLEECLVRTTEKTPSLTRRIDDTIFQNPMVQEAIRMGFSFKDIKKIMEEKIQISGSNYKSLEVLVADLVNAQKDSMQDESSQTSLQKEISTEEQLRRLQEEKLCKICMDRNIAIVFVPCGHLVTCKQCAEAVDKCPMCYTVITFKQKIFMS
# Method: IAP-E2 Binding Assay for Measuring Self-Conjugation
# ^35S-methionine labeled DIAP1 or XIAP was generated in an in vitro transcription-translation system (Promega) from diap1-pET14b and xiap-pcDNA3.1 respectively. For purification of His-UBCD1 and His-UBCH5C, ubcD1-pET14b and ubcH5C-pT7-7 were expressed in BL21 (pLysS) and purfied on a Ni-column according to the manufacturer's protocol (Novagen). ^35S-DIAP1 or ^35S-XIAP was incubated with purified UBCD1 or UBCH5C respectively in the absence or presence of the W-7, H2-9 or H2-9W7 peptides. Following incubation of 15 min in room temperature in 20 mM Tris pH7.6, 2 mM DTr, Ni-NTA Agarose beads (Qiagen) were added for additional 30 minutes. The beads were subsequently washed four times with the Tis/DTT buffer, eluted with Laemli buffer and subjected to 10% SDS-PAGE. ^35S-DIAP1 or ^35S-XIAP was visualized by Phosphorimaging.
# ^35S-methionine labeled mutant and wild type DIAP1, or wild type XIAP were generated in an in vitro transcription-translation system (Promega) from diap1-pET14b, diap1^21-4S pET14b and xiap pcDNA3.1 plasmids. For purification of His-UBCD1 and His-UBCH5C, ubcD1-pET14b and ubcH5C-pT7-7 were expressed in BL21 (pLysS) and purified on a Ni-column according to the manufacturer's protocol (Novagen). […]
# [4] = tested on: DIAP1; experiment: Ectopic expression (Gal4/UAS) in Drosophila imaginal discs and embryos, anti-DIAP1 labeling; type: in vivo
# From the text: Mitotic recombination was induced in the developing eye imaginal discs using the Flp-FRT method36 and ey-flipase. Gal4/UAS system was used for ectopic expression.
# GST-DIAP16 was expressed in BL21 (pLysS) bacteria, and was gel purified before immunizing rabbits (Cocalico Biologicals). diap1(WT)-pET14b was used to express His-DIAP1 in BL21(pLysS) and was purified according to the manufacturer's protocol (Novagen) and immobilized on nitrocellulose paper to affinity purify anti-DIAP1 antisera Rabbit anti-β-galactosidase antibody (Cappel, ICN), mouse-anti-β-gatosdase antibody (Sigma), monoclonal anti-Engrailed antibody (Developmental Studies Hybridoma Bank), Rabbit CM1 antibody24 and mouse anti-HA antibody (Babco) were used to stain embryos and imaginal discs under standard conditions. For western blots, 6-18 h hour embryos were homogenized in the lysis buffer (20 mM Tris pH 7.5, 100 mM NaCl, 1% NP-40, 2 mM DTT) and the cell debns was spun down. The supernatant was run on 15% SDS-PAGE gels, transferred to nitrocellulose sheets and probed with Rabbit anti-DIAP1 antibody. Western blot was detected with ECL (Amersham).
# IAP degradation in thymocytes is a regulated process, wherein glucocorticoids can trigger IAP degradation by unknown mechanisms. To determine whether DIAP1 degradation is also regulated in Drosophila, we co-expressed the cell death promoting protein RPR and the baculovirus p35 caspase inhibitor^21 in the wing imaginal disc posterior compartment using the engrailed (en)-Gal4 driner^22. Expression of p35 prevented RPR-expressing cells from dying, and the resulting cell population not undergoing apoptosis enabled us to observe cellular changes downstream of RPR. Whereas animals expressing RPR alone died as embryos, those compressing RPR and p35 survived to adulthood with wings indistinguishable from wild type (FIG. 2a). […] The wing imaginal discs were also labeled with CM1 antibody, which detects activated caspase-3 in humans and cross-reacts with activated caspases in Drosophila^23,24. In the control anterior compartment, sporadic apoptotic cells were intensely labeled with CM1.
# Thus, the effect of the RING finger mutations on RPR-dependent DIAP1 degradation in embryos was determined. The protein distribution of DIAP1 was analyzed in embryos that express RPR under the prd-Gal4 driver (FIG. 3a, c). In wild type embryos, DIAP1 is homogenously distributed (FIG. 3b).
# [5] = molecular target: T1, Diap1 in Cos-7 cells; experiment: Cellular stability of DIAP1 (cycloheximide chase, Western blot); type: cell-based; settings: Cos-7 cells co-transfected with Diap1-Flag and RPR-HA, cycloheximide 30 minute chase
# Method: Cellular Stability of DIAP1
# Cos-7 cells were transfected with 1 μg of wild-type (wt) Diap1-Flag-pcDNA3 along with 1 μg RPR-HA-pcDNA3 or 1 μg pcDNA3 vector (to maintain an equal amount of DNA in all transfections). Transfections were carried out by using FuGene™. 30 h aer transfection, 100 μg cycloheximide (Sigma) was added to each 60 mm dish for 0, 30, 60 min. Cells were harvested and lysed. Equal amount of protein were resolved via SDS-PAGE (10%) and blotted onto riocellulose paper. Diap1 was monitored by Western blot analysis using anti-Diap1 antibody and ECL.
# In order to determine the effect of the IAP inhibitor (IAPi), Reaper's expression on IAP protein stability, a pulse-chase experiment was conducted using Cos-7 cells co-transfected with Diap1-Flag-pcDNA3 and RPR-HA-pcDNA3 or pcDNA3 vector alone treated with cycloheximide for 0, 30 or 60 minutes, followed by cell lysis, and immunoblot analysis.
# [6] = tested on: DIAP1; experiment: In vitro ubiquitination reaction / self-conjugation of 35S-DIAP1; type: biochemical, Drosophila; settings: 35S-DIAP1 with E1 and ubiquitin
# Method: (§1) In Vitro Ubiquitination Reaction
# ^35S-methionine labeled mutant and wild type DIAP1, or wild type XIAP were generated in an in vitro transcription-translation system (Promega) from diap1-pET14b, diap1^21-4S pET14b and xiap pcDNA3.1 plasmids. For purification of His-UBCD1 and His-UBCH5C, ubcD1-pET14b and ubcH5C-pT7-7 were expressed in BL21 (pLysS) and purified on a Ni-column according to the manufacturer's protocol (Novagen). In vitro ubiquitination assays were carried out in a total volume of 12.5 μl and contained: ^35S-methionine labeled wild type or mutant DIAP1 or Wild type XIAP (approximately 10,000 cpm), and 250 ng E1 (made in baculovirus; vector is the kind gift of Dr. Kaznbiro Iwai, University of Osaka, Osaka Japan). […]
# In order to determine whether both amino acid consensus sequences described above are essential for IAP degradation; peptides were generated, with amino acid sequences as described in Tables 1, 3 and 5 above, containing one of each amino acid consensus sequence, or both and their ability to stimulate in vitro IAP ubiquitination was assessed (FIG. 13). ^35S-methionine labeled wild type DIAP1 was incubated with 250 ng E1 and ubiquitin, with or without the addition of the RPR wild type protein, or peptides containing the RHG amino acid consensus sequence of the RPR HID or GRIM proteins, and the reaction products were resolved by SDS-PAGE.
# [7] = molecular target: T2, XIAP; experiment: In vitro ubiquitination reaction of 35S-XIAP; type: biochemical
# Method: as §1
# ^35S-methionine labeled mutant and wild type DIAP1, or wild type XIAP were generated in an in vitro transcription-translation system (Promega) from diap1-pET14b, diap1^21-4S pET14b and xiap pcDNA3.1 plasmids. For purification of His-UBCD1 and His-UBCH5C, ubcD1-pET14b and ubcH5C-pT7-7 were expressed in BL21 (pLysS) and purified on a Ni-column according to the manufacturer's protocol (Novagen). In vitro ubiquitination assays were carried out in a total volume of 12.5 μl and contained: ^35S-methionine labeled wild type or mutant DIAP1 or Wild type XIAP (approximately 10,000 cpm), and 250 ng E1 (made in baculovirus; vector is the kind gift of Dr. Kaznbiro Iwai, University of Osaka, Osaka Japan). Unless otherwise stated, 1.2 μg His-UBCD1 or His-UBCH5C was used in each reaction Reaction mire contained also 40 mM Tris-HCl, pH 7.6, 5 mM MgCl2, 1 mM DTT, 5 μg ubiquitin, 100 ng Ubiquitin-aldehyde, 2 mM ATPγS [Adenosine 5′-O-(3-thiotriphosphate)]. Reactions were incubated for 50 min at 37° C., and resolved, following addition of a sample buffer on SDS-PAGE (10%). Gels were dried and proteins visualized via Phosphorimaging (Fuji, Japan).
molecule,measurement,setting,value
"His-UBCD1 (Drosophila ubiquitin conjugating enzyme UbcD1, purified from E. coli)","in vitro ubiquitination of 35S-DIAP1 (E1, His-UBCD1, ubiquitin; SDS-PAGE, Phosphorimaging)",[1],Wild-type DIAP1 (lane 4) showed marked ubiquitination
same,"in vitro ubiquitination of 35S-DIAP1 (E1, His-UBCD1, ubiquitin; SDS-PAGE, Phosphorimaging)",[2],"the His-DIAP1^21-4S mutant (RING domain mutant) did not (lane 7), in the presence of ubcD1"
AVAPYIPDQATLLR QWRFLATVVL (AVAFYIPDQATLLRQWRFLATVVL; Drosophila melanogaster) [Peptide R15W],XIAP self-conjugation in vitro,[3],greatest effect
AVPFYLPE QWRFLATVVL (AVPFYLPEQWRFLATVVL; Drosophila melanogaster) [Peptide H9-W],XIAP self-conjugation in vitro,[3],greatest effect
B1,DIAP1 downregulation in embryos,"[4]; RING domain mutant background, diap1 33-1S and diap1 22-8S alleles",no longer able to downregalate DIAP1
same,DIAP1 protein levels in embryos,"[4]; expression under prd-Gal4 driver, wild type diap1",DIAP1 protein levels decrease
same,diap1-lacZ expression,"[4]; wing imaginal disc posterior compartment, co-expressed with p35 under en-Gal4",increased
same,anti-DIAP1 labeling,"[4]; wing imaginal disc posterior compartment, co-expressed with p35 under en-Gal4, compared to anterior compartment",reduced anti-DIAP1 labeling
same,IAP (Diap1) protein level / half-life,[5],dramatic reduction in detectable IAP protein
same,IAP (DIAP1) self-conjugation / auto-ubiquitination in vitro,[6],resulted in auto-ubiquitination
same,auto-ubiquitination of human XIAP,[7],strongly stimulated
